The target in the test is Recombinant Rac1 (1-192aa), His-tagged fusion protein (UniProt P63000 1-192). The test can be described thus: pull-down; cell-free: 5 μg purified His-Rac1 in 20 μl GTP binding buffer (20 mM Tris-HCl pH 7.6, 100 mM NaCl, 2 mM MgCl2, 1 mM DTT) with 1% BSA, GTP-γS (0.01-10 μM, or 200 nM after 1 h with compound #1 or #6) for 10 min at room temperature, then 1 h with GST-PAK1 on agarose beads; Rac1 immunoblot. The conditions noted are these: both partners purified.

Consider one molecule from article PMC5470993, “Discovery and characterization of small molecule Rac1 inhibitors” (Oncotarget, 2017).

B1: GST-PAK1-PBD (70-117aa) (domain or fragment)
chain: KERPEISLPSDFEHTIHVGFDAVTGEFTGMPEQWARLLQTSNITKSEQ
notes: Held on glutathione/agarose beads; The methods also name a Rac1/Cdc42 assay kit (Upstate Biotechnology); also called GST-PAK1 (RBD); source: E. coli DH5α, purified on glutathione resin; plasmid from Addgene
As for B1, the binding result is reported as “binds”.
